Target: mouse RANK (RANKL receptor on RAW264 cells) (mouse) (UniProt O35305)
Test: cell-based or functional assay

UniProt O35305, sequence (O35305 31-625): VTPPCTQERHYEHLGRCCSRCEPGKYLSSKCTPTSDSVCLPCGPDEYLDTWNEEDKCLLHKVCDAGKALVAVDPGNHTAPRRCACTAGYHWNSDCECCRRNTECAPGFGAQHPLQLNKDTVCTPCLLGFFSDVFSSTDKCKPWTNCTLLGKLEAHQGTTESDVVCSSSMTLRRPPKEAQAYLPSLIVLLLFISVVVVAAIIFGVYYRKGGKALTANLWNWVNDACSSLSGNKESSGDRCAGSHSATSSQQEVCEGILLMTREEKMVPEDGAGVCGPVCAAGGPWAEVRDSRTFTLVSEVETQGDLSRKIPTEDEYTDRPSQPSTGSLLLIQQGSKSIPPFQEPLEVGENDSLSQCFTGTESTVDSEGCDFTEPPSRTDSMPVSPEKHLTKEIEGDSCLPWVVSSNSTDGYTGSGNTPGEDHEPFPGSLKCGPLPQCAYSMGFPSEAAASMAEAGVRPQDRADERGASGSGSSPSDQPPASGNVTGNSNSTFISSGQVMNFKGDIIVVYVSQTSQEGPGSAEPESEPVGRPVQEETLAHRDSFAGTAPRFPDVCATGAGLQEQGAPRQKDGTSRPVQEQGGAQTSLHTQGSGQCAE

For “GST-RANKL (fused protein of glutathione-S-transferase with human soluble RANKL residues 140-317) (ligand)”, the osteoclast induction activity in RAW264 cells (at concentrations of 10 nM and 5 nM) (fold over mouse soluble RANKL) was > 2.

— US20100105612A1
